Data: article PMC7790415, “Loss of endocytosis-associated RabGEF1 causes aberrant morphogenesis and altered autophagy in photoreceptors leading to retinal degeneration” (PLoS Genetics, 2020)
Values joined by “and” are separate entries in the source; they are usually repeats but may differ in a detail not shown here. Equal values may be shown once.

Biological target: T1, RabGEF1 (mouse (endogenous in retina), UniProt Q9JM13 1-491)
T1 construct: RabGEF1 (Rabex-5), mouse, endogenous protein of retinal extracts, immunoprecipitated with anti-RabGEF1 antibody; Endogenous protein; also called Rabex-5; Rabex5; source: endogenous, mouse retina extract (control retina)
Assay: affinity purification with mass spectrometry; anti-RabGEF1 and IgG immunoprecipitates from control and Rabgef1-/- mouse retinal lysates; trypsin digest, LC-MS on Orbitrap Lumos (n = 2)
Conditions: partners not purified

T1 sequence (Q9JM13 whole entry): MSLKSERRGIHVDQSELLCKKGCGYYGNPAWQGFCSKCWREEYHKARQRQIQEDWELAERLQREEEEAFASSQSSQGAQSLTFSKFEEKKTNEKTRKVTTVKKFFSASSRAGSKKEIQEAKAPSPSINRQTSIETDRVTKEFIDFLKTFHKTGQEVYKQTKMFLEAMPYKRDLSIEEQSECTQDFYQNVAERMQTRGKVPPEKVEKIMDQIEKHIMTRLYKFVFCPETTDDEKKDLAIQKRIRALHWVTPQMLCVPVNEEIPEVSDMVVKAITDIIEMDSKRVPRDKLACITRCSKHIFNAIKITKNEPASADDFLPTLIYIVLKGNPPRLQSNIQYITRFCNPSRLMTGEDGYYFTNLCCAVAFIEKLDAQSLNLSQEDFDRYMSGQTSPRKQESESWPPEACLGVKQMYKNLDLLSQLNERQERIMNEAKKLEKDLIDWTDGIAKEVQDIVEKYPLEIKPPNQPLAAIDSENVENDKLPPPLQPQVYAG

B1: Rabaptin-5 (natural protein, mouse (endogenous in retina), UniProt O35551 1-862, looked up)
chain: MAQPGPAPQPDVSLQQRVAELEKINAEFLRAQQQLEQEFNQKRAKFKELYLAKEEDLKRQNAVLQAAQDDLGHLRTQLWEAQAEMENIKAIATVSENTKQEAIDEVKRQWREEVASLQAIMKETVRDYEHQFHLRLEQERAQWAQYRESAEREIADLRRRLSEGQEEENLENEMKKAQEDAEKLRSVVMPMEKEIAALKDKLTEAEDKIKELEASKVKELNHYLEAEKSCRTDLEMYVAVLNTQKSVLQEDAEKLRKELHEVCHLLEQERQQHNQLKHTWQKANDQFLESQRLLMRDMQRMEIVLTSEQLRQVEELKKKDQEEDEQQRVNKRKDNKKTDTEEEVKIPVVCALTQEESSTPLSNEEEHLDSTHGSVHSLDADLMLPSGDPFSKSDNDMFKDGLRRAQSTDSLGTSSSLQSKALGYNYKAKSAGNLDESDFGPLVGADSVSENFDTVSLGSLQMPSGFMLTKDQERAIKAMTPEQEETASLLSSVTQGMESAYVSPSGYRLVSETEWNLLQKEVHNAGNKLGRRCDMCSNYEKQLQGIQIQEAETRDQVKKLQLMLRQANDQLEKTMKEKQELEDFLKQSAEDSSHQISALVLRAQASEVLLEELQQSFSQAKRDVQEQMAVLMQSREQVSEELVRLQKDNDSLQGKHSLHVSLQLAEDFILPDTVEVLRELVLKYRENIVHVRTAADHMEEKLKAEILFLKEQIQAEQCLKENLEETLQLEIENCKEEIASISSLKAELERIKVEKGQLESTLREKSQQLESLQEMKVNLEEQLKKETAAKATVEQLMFEEKNKAQRLQTELDVSEQVQRDFVKLSQTLQVQLERIRQADSLERIRAILNDTKLTDINQLPET
notes: Rabaptin-5 (also known as Rabep1), mouse, endogenous protein of retinal extracts; Endogenous protein; also called Rabep1; source: endogenous, mouse retina extract (control retina)
- stoichiometry N: 0.5 Rabaptin-5 per RabGEF1 (printed as RabGEF1:Rabaptin-5 2:1) and 2 Rabaptin-5 per RabGEF1 (printed as RabGEF1:Rabaptin-5 1:2)
